Measured values from article doi:10.1101/2025.06.25.661518, “Structural insights into DNA annealing and recombination by herpesviral DNA-binding proteins ICP8 and BALF2” (bioRxiv, 2025).

B1: ICP8, full-length (Herpes Simplex Virus 1 DNA-binding protein) (natural protein)
chain: METKPKTATTIKVPPGPLGYVYARACPSEGIELLALLSARSGDSDVAVAPLVVGLTVESGFEANVAVVVGSRTTGLGGTAVSLKLTPSHYSSSVYVFHGGRHLDPSTQAPNLTRLCERARRHFGFSDYTPRPGDLKHETTGEALCERLGLDPDRALLYLVVTEGFKEAVCINNTFLHLGGSDKVTIGGAEVHRIPVYPLQLFMPDFSRVIAEPFNANHRSIGEKFTYPLPFFNRPLNRLLFEAVVGPAAVALRCRNVDAVARAAAHLAFDENHEGAALPADITFTAFEASQGKTPRGGRDGGGKGAAGGFEQRLASVMAGDAALALESIVSMAVFDEPPTDISAWPLFEGQDTAAARANAVGAYLARAAGLVGAMVFSTNSALHLTEVDDAGPADPKDHSKPSFYRFFLVPGTHVAANPQVDREGHVVPGFEGRPTAPLVGGTQEFAGEHLAMLCGFSPALLAKMLFYLERCDGAVIVGRQEMDVFRYVADSNQTDVPCNLCTFDTRHACVHTTLMRLRARHPKFASAARGAIGVFGTMNSMYSDCDVLGNYAAFSALKRADGSETARTIMQETYRAATERVMAELETLQYVDQAVPTAMGRLETIITNREALHTVVNNVRQVVDREVEQLMRNLVEGRNFKFRDGLGEANHAMSLTLDPYACGPCPLLQLLGRRSNLAVYQDLALSQCHGVFAGQSVEGRNFRNQFQPVLRRRVMDMFNNGFLSAKTLTVALSEGAAICAPSLTAGQTAPAESSFEGDVARVTLGFPKELRVKSRVLFAGASANASEAAKARVASLQSAYQKPDKRVDILLGPLGFLLKQFHAAIFPNGKPPGSNQPNPQWFWTALQRNQLPARLLSREDIETIAFIKKFSLDYGAINFINLAPNNVSELAMYYMANQILRYCDHSTYFINTLTAIIAGSRRPPSVQAAAAWSAQGGAGLEAGARALMDAVDAHPGAWTSMFASCNLLRPVMAARPMVVLGLSISKYYGMAGNDRVFQAGNWASLMGGKNACPLLIFDRTRKFVLACPRAGFVCAASSLGGGAHESSLCEQLRGIISEGGAAVASSVFVATVKSLGPRTQQLQIEDWLALLEDEYLSEEMMELTARALERGNGEWSTDAALEVAHEAEALVSQLGNAGEVFNFGDFGCEDDNATPFGGPGAPGPAFAGRKRAFHGDDPFGEGPPDKKGDLTLDML
notes: also called full-length ICP8 form; source: insect cells, purified
B2: BALF2, DNA-binding protein of Epstein-Barr Virus (natural protein)
chain: MQGAQTSEDNLGSQSQPGPCGYIYFYPLATYPLREVATLGTGYAGHRCLTVPLLCGITVEPGFSINVKALHRRPDPNCGLLRATSYHRDIYVFHNAHMVPPIFEGPGLEALCGETREVFGYDAYSALPRESSKPGDFFPEGLDPSAYLGAVAITEAFKERLYSGNLVAIPSLKQEVAVGQSASVRVPLYDKEVFPEGVPQLRQFYNSDLSRCMHEALYTGLAQALRVRRVGKLVELLEKQSLQDQAKVAKVAPLKEFPASTISHPDSGALMIVDSAACELAVSYAPAMLEASHETPASLNYDSWPLFADCEGPEARVAALHRYNASLAPHVSTQIFATNSVLYVSGVSKSTGQGKESLFNSFYMTHGLGTLQEGTWDPCRRPCFSGWGGPDVTGTNGPGNYAVEHLVYAASFSPNLLARYAYYLQFCQGQKSSLTPVPETGSYVAGAAASPMCSLCEGRAPAVCLNTLFFRLRDRFPPVMSTQRRDPYVISGASGSYNETDFLGNFLNFIDKEDDGQRPDDEPRYTYWQLNQNLLERLSRLGIDAEGKLEKEPHGPRDFVKMFKDVDAAVDAEVVQFMNSMAKNNITYKDLVKSCYHVMQYSCNPFAQPACPIFTQLFYRSLLTILQDISLPICMCYENDNPGLGQSPPEWLKGHYQTLCTNFRSLAIDKGVLTAKEAKVVHGEPTCDLPDLDAALQGRVYGRRLPVRMSKVLMLCPRNIKIKNRVVFTGENAALQNSFIKSTTRRENYIINGPYMKFLNTYHKTLFPDTKLSSLYLWHNFSRRRSVPVPSGASAEEYSDLALFVDGGSRAHEESNVIDVVPGNLVTYAKQRLNNAILKACGQTQFYISLIQGLVPRTQSVPARDYPHVLGTRAVESAAAYAEATSSLTATTVVCAATDCLSQVCKARPVVTLPVTINKYTGVNGNNQIFQAGNLGYFMGRGVDRNLLQAPGAGLRKQAGGSSMRKKFVFATPTLGLTVKRRTQAATTYEIENIRAGLEAIISQKQEEDCVFDVVCNLVDAMGEACASLTRDDAEYLLGRFSVLADSVLETLATIASSGIEWTAEAARDFLEGVWGGPGAAQDNFISVAEPVSTASQASAGLLLGGGGQGSGGRRKRRLATVLPGLEV
notes: also called EBV BALF2; source: insect cells, purified

Tests used:
[1] = biological target: the molecule itself; assay: cryo-EM structure; ICP8 double filament reconstituted with linear dsDNA carrying long ssDNA tails (T4 polymerase-treated); single-particle analysis of filament segments, 3.2 Å; DNA could not be built into the map
[2] = biological target: the molecule itself; assay: filament reconstitution seen by electron microscopy; protein incubated without DNA under the same conditions as the filament reconstitution; kind of microscopy not told

| Protein | binding result [1] | binding result [2] |
| --- | --- | --- |
| B1 | binds | – |
| B2 | – | binds |
